# In US20250270737A1, “Antibodies That Bind GLP1R” (Twist Bioscience Corporation, priority 2019, published 2025):
# Biological target: GLP1R (Homo sapiens, UniProt P43220)
# Test: Binding assay with flow cytometry on flag-GLP1R-GFP expressing CHO cells (CHO-GLP1R)
# Details: 100 nM IgG
# Procedure: Briefly, flag-GLP1R-GFP expressing CHO cells (CHO-GLP1R) and CHO-parent cells were incubated with 100 nM IgG for 1 hour on ice, washed three times and incubated with Alexa 647 conjugated goat-anti-human antibody (1:200) for 30 minutes on ice, followed by three washes. All incubations and washes were performed in buffer containing PBS and 0.5% BSA. For titrations, IgG was serially diluted 1:3 starting from 100 nM. […] Analyses of binding assays with IgG titrations presented as binding curves plotting IgG concentrations against MFI (mean fluorescence intensity) are seen in FIGS. 15A-15H. Flow cytometry data of binding assays presented as dot plots with 100 nM IgG are seen in FIGS. 16A-16I.
# The GLP1R IgGs were then assayed in binding assays coupled to flow cytometry analysis using similar methods as described in Example 12. Briefly, stably expressing Flag-GLP1R-GFP CHO cells or CHO-parent cells were incubated with primary IgG (100 nM or 1:3 titrations). Secondary antibody incubation involved Alexa 647 conjugated goat-anti-human IgG. Flow cytometry measured the GFP signal against the Alexa 647 signal to identify IgGs that specifically bound to the target (GLP1R).
# GLP1R, sequence (P43220 24-463): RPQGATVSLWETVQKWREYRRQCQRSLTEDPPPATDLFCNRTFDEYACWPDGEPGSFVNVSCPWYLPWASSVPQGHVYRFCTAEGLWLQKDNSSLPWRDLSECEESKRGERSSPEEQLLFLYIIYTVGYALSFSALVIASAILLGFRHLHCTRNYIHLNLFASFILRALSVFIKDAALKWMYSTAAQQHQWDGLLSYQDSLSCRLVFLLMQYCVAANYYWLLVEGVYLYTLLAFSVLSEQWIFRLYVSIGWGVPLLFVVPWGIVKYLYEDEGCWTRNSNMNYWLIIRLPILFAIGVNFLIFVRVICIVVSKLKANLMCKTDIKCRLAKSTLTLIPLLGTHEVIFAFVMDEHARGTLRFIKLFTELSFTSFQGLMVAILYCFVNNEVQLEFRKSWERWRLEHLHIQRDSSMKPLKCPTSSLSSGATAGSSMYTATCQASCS
row,Molecule,binding to CHO-GLP1R
1,"GLP1R-240: GLP1R scFv clone reformatted to IgG2; CDR-H3 SEQ ID NO 2298, heavy 2305, light 2312 (antibody) heavy: MEWSWVFLFFLSVTTGVHSQVQLVQSGAEVKKPGSSVKVSCKASGGTFNNYGISWVRQAPGQGLEWMGGIIPVFGTANYAQKFQGRVTITADESTSTAYMELSSLRSEDTAVYYCARDMYYDFFGLGTFTSDVSSYLEGQAAKEFIAWLVKGVSPEVVPADDAFDIWGQGTLVTVSSASASTKGPSVFPLAPCSRSTSESTAALGCLVKDYFPEPVTVSWNSGALTSGVHTFPAVLQSSGLYSLSSVVTVPSSNFGTQTYTCNVDHKPSNTKVDKTVERKCCVECPPCPAPPVAGPSVFLFPPKPKDTLMISRTPEVTCVVVDVSHEDPEVQFNWYVDGVEVHNAKTKPREEQFNSTFRVVSVLTVVHQDWLNGKEYKCKVSNKGLPAPIEKTISKTKGQPREPQVYTLPPSREEMTKNQVSLTCLVKGFYPSDIAVEWESNGQPENNYKTTPPMLDSDGSFFLYSKLTVDKSRWQQGNVFSCSVMHEALHNHYTQKSLSLSPG light: MSVPTQVLGLLLLWLTDARCQSVLTQPPSVSAAPGQKVTISCSGSSSSIGNNYVSWYQQLPGTAPKLLIYANNKRPSGIPDRFSGSKSGTSATLGITGLQTGDEADYYCATWSSSPRGWVFGGGTKLTVLGQPKAAPSVTLFPPSSEELQANKATLVCLISDFYPGAVTVAWKADSSPVKAGVETTTPSKQSNNKYAASSYLSLTPEQWKSHRSYSCQVTHEGSTVEKTVAPTECS",found to bind to CHO-GLP1R
2,"GLP1R-242: GLP1R scFv clone reformatted to IgG2; CDR-H3 SEQ ID NO 2300, heavy 2307, light 2314 (antibody) heavy: MEWSWVFLFFLSVTTGVHSQVQLVQSGAEVKKPGSSVKVSCKASGGTFSSYEISWVRQAPGQGLEWMGGIIPILGIANYAQKFQGRVTITADESTSTAYMELSSLRSEDTAVYYCAKHMSMQADTGTFTSDVSSYLEGQAAKEFIAWLVKGEFSSRADLVGDAFDVWGQGTLVTVSSASASTKGPSVFPLAPCSRSTSESTAALGCLVKDYFPEPVTVSWNSGALTSGVHTFPAVLQSSGLYSLSSVVTVPSSNFGTQTYTCNVDHKPSNTKVDKTVERKCCVECPPCPAPPVAGPSVFLFPPKPKDTLMISRTPEVTCVVVDVSHEDPEVQFNWYVDGVEVHNAKTKPREEQFNSTFRVVSVLTVVHQDWLNGKEYKCKVSNKGLPAPIEKTISKTKGQPREPQVYTLPPSREEMTKNQVSLTCLVKGFYPSDIAVEWESNGQPENNYKTTPPMLDSDGSFFLYSKLTVDKSRWQQGNVFSCSVMHEALHNHYTQKSLSLSPG light: MSVPTQVLGLLLLWLTDARCQSVLTQPPSVSAAPGQKVTISCSGSSSNIENNDVSWYQQLPGTAPKLLIYGNDQRPSGIPDRFSGSKSGTSATLGITGLQTGDEADYYCGTWDNTLSAGVFGGGTKLTVLGQPKAAPSVTLFPPSSEELQANKATLVCLISDFYPGAVTVAWKADSSPVKAGVETTTPSKQSNNKYAASSYLSLTPEQWKSHRSYSCQVTHEGSTVEKTVAPTECS",found to bind to CHO-GLP1R
